Laboratory results from paper PMC4258231.

Biological target: typhoid toxin B subunit PltB (Salmonella Typhi) (UniProt Q8Z6A3)
Assay: crystal structure

How did the stoichiometry N turn out when “typhoid toxin B subunit PltB (from UniProt Q8Z6A3 1-137) (natural protein)” was run?
Its stoichiometry N is 5.
